Test system: MS2 coat protein
Experiment: apparent KD of MS2 coat protein; designed switch direction (-1 OFF switch, 1 ON switch): -1; higher = weaker reporter binding
Method in brief: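 SNAP-549-labelled MS2 coat protein was titrated, doubling from 0.7 or 1.5 nM to 3 µM, over designed RNA switches transcribed on Illumina chips by stalled E. coli RNA polymerase. Runs were done without input, with 200 uM small-molecule ligand, or with an oligonucleotide input. Apparent KD is the per-design median over clusters of curve-fitted normalised fluorescence.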

[1] = input ligand: microRNA oligo, concentration not stated
[2] = Eterna round: R95, input ligand: FMN 200 uM
[3] = Eterna round: R95, input ligand: microRNA oligo, concentration not stated
[4] = Eterna round: R95, input ligand: none

| Sequence | apparent KD of MS2 coat protein (input ligand: FMN 200 uM) | apparent KD of MS2 coat protein [1] | apparent KD of MS2 coat protein (input ligand: none) | apparent KD of MS2 coat protein [2] | apparent KD of MS2 coat protein [3] | apparent KD of MS2 coat protein [4] |
| --- | --- | --- | --- | --- | --- | --- |
| CCCGGGUCUGCAGGAUAUUCGAAAGCAGGUCAAAGGUCACAUGAGGAUCACCCAUGUAGUUUAACGAAGAAGGGUGUCGCCCGU [Eternabot solution 38] (Eterna round: R96, puzzle: Exclusion NG 2) | 168 nM | 76.7 nM | 162 nM | – | – | – |
| GCUGGUCGAGGAUAUGCAUAUACUGGAUACAGUGGAAGGUCACAUGAGGAUCACCCAUGUAGAAGGCGACCAGC [EX2 #36] (Eterna round: R97, puzzle: Exclusion 2) | 634 nM | – | 527 nM | – | – | – |
| AAGUAGACGGUGAGGAUAUAGGUCGAAUGACCGAUUUAGAAGGUACAUGAGGAUCACCCAUGUGGGUAACGUCG [Brourd's EX4 #29] (Eterna round: R97, puzzle: Brourd's mod of Exclusion 4) | 56.5 nM | – | 107 nM | – | – | – |
| UAUCGGCGGACCGAGGCUUUUUGCUCGUCUUAUGCUAUGACAUGAGGAUCACCCAUGUGGUGGUGGUCCGUUGUAGU [JL ViennaUCT Bitein mod 10] (puzzle: Sensor v3, turn-off variant 2) | – | – | – | 64.5 nM | 12.6 nM | 48.1 nM |
| AAUUAUUUUUGAGGAUAUGGUGGUGAAACACCACCAGAAGGCGAGAUAAACAUGAGGAUCACCCAUGUGAGCCUGAUGCUUAUG [Ex NG1 #49] (Eterna round: R96, puzzle: Exclusion NG 1) | 29.2 nM | 12.6 nM | 17.2 nM | – | – | – |
| UAUUAUUGCAAGGAUAUGCUUUUUAUUUCUUUUGCAGAAGGUGCAACAUGAGGAUCACCCAUGUUUCCGGGUAU [JR_E6_Sub033] (puzzle: Exclusion 6) | – | – | – | – | 20.4 nM | – |
| CUAAUAUAUCAGGAUAUGAUUUUAUGUGUUGGAUCAGAAGGGAUAACAUGAGGAUCACCCAUGUUGUGGAGUGA [JR_Ex6_Sub037] (Eterna round: R97, puzzle: Exclusion 6) | 271 nM | – | 112 nM | – | – | – |
| ACAUGAGGAUCACCCAUGUCUGGCUGGUCUGCUCCGGUUGUUGAGGAUAUAGUUCGGUGUUCGCGCUAGAAGGUGAGGGCUGGA [Aenatbe mod 39] (Eterna round: R96, puzzle: Exclusion NG 3) | 260 nM | 139 nM | 176 nM | – | – | – |
| UCGGUGUCAGGAUAUACAUGAGGAUCACCCAUGUAGAGAGAAGAUAGGGAAAGAGUAGGUAGAAGGGACGAGAG [JR_Exclu3_Sub045] (puzzle: Exclusion 3) | – | – | – | 43.7 nM | 29.1 nM | 41.7 nM |
| UAUUAACAUGUAGGAUAUCUGCACGAUUAGUGCAGAGAAGGACAUGAGGAUCACCCAUGUAGAUCAUAAUAAUUUAAUUUAAUU [ENG1/6-D1] (Eterna round: R96, puzzle: Exclusion NG 1) | – | 106 nM | – | – | – | – |
| CCAAGCUUAUUCAUUAACCACAUGAGGAUCACCCAUGUCUAGGCAAUUAUGACUUGCCCAUCUGGUGCUCGUCUUAU [Sensor-V1 #32] (Eterna round: R97, puzzle: Sensor, turn-off variant 1) | 32 nM | – | 32.7 nM | – | – | – |
| AUCCAACAUGAGGAUCACCCAUGUCAGGAUAUACCCAUCUCCACCUAAUCGGUGGUGGGUAGAAGGGAUAUGUC [EX1 B.10] (Eterna round: R97, puzzle: Exclusion 1) | 22.6 nM | – | 18.9 nM | – | – | – |
| UUUAGUUUAGGAUAUGUAGAUUUUAACAUGAGGAUCACCCAUGUAGAUCCUGAAUUAACUACAGAAGGAAACAUUU [Mod of Brourd 13 - Jieux - Exclusion 5] (Eterna round: R97, puzzle: Exclusion 5) | 514 nM | – | 123 nM | – | – | – |
| AGAUUAUGAGGAUAUCGAGUUUAGUACAUGAGGAUCACCCAUGUUAUCCAGGUCUCGUUUCGAGAAGGCAUGAUUC [LRO-Ex5-09] (puzzle: Exclusion 5) | – | – | – | – | 35.3 nM | – |
| ACAUGAGGAUCACCCAUGUCAGGCGGGUCCACUCCGGCUGUUGAGGAUAUAGUCCGGUAUCCGCGCUAGAAGGUGAGGGCCGGC [Aenatbe mod 24] (Eterna round: R96, puzzle: Exclusion NG 3) | 20.6 nM | 15.4 nM | 19.9 nM | – | – | – |
| CAUGAUUGGGAAGGAUAUUGACCUAGUUAGCGCCGAGAAGGUCCCUUUCACAUGAGGAUCACCCAUGUGAGUCUGGUGUUCGAG [Ex NG1 #96] (Eterna round: R96, puzzle: Exclusion NG 1) | 37.7 nM | 26.8 nM | 37.6 nM | – | – | – |
| GAUAGAGAGCAGGAUAUCUUGGAUAAGUAUAGUAGAGAAGGGCUCACAUGAGGAUCACCCAUGUGGUCCAAGAU [JL Dibiri mod 12] (puzzle: Exclusion 6) | – | – | – | 28 nM | 14.8 nM | 15.8 nM |
| AAUUAAUUAAUUAAUUAAUACAUGAGGAUCACCCAUGUAAUUUAAGAUCCUUAUACAAGCUUUGAUCUCGUAAUUAA [Stov1/4-A1] (Eterna round: R97, puzzle: Sensor, turn-off variant 1) | 98.9 nM | – | 93.8 nM | – | – | – |
| CAUGUUGACAGAGGAUAUGCAAUGUGAUUUAGGGUAGAAGGCUGAGACAUGAGGAUCACCCAUGUGGGUGCGUUCUAGCGACAA [Atmala] (Eterna round: R96, puzzle: Exclusion NG 1) | 150 nM | 19.4 nM | 34 nM | – | – | – |
| UGAGUGCUGCGAGGAUAUACAUGAGGAUCACCCAUGUUUACCUGUGAGGCAAAGCCUCACAGGUUGUAGAAGGCGCAGUACUCU [Mat - Exclusion NG 2 - Mod of JL - D41] (Eterna round: R96, puzzle: Exclusion NG 2) | 16 nM | 11.3 nM | 18.6 nM | – | – | – |
| CGUACUGAAGUGAGGAUAUUGUCUCGGAUACGAAACAAGAAGGCACAUGAGGAUCACCCAUGUAGACAGUACGA [Malc #30 mod 2] (puzzle: Brourd's mod of Exclusion 4) | – | – | – | 15.1 nM | 17.3 nM | 15.7 nM |
| GAGGAGCAAGGAUAUACGAGGAUAGGGAAGUGAGGAGAGUGACAUGAGGAUCACCCAUGUAGAAGGUGCAAGGG [JR_Exclu2_Sub094] (puzzle: Exclusion 2) | – | – | – | 111 nM | 89.4 nM | 190 nM |
| AGCAAGCAAUAGGAUAUGCCUGCAAGCUUGCAUGCAGAAGGAUUGACUUGAGGAUCACCCAAGUGGGCUCCUAA [Erbexe] (Eterna round: R97, puzzle: Exclusion 6) | 319 nM | – | 49.5 nM | – | – | – |
| GGUGGGCUAGGAUAUGCUUUGGGCAGGCAUUCCUUCGAUAAACUUGAGGAUCACCCAAGUAGAAGGAGCUUGCC [salish99_ex2_r4_025] (Eterna round: R97, puzzle: Exclusion 2) | 10.8 nM | – | 10.7 nM | – | – | – |
| AAUCCUGAAGUUAGGAUAUGAAGUAUCACUGCACUUCAGAAGGGACUUGAGGAUCACCCAAGUAGCCGUGAGGG [salish99_bmod_ex4_r4_001] (Eterna round: R97, puzzle: Brourd's mod of Exclusion 4) | 161 nM | – | 47.5 nM | – | – | – |
